Laboratory results published in US20230312750A1 (AD PHARMACEUTICALS, published 2023).

Columns and labels:
Assay in all cases: cell-based or functional assay
[1] = target: T1, PCSK9-his (wild-type PCSK9, prepared by Akeso Biopharma) (human, UniProt Q8NBP7 31-692, limits assumed)
[2] = target: PCSK9(D374Y)-his (Acrobio, cat. no. PCY-H5225) (UniProt Q8NBP7 31-692)
[3] = target: T1, PCSK9-his (wild-type PCSK9, prepared by …); remark: listed apart in the source

Row | Binder | EC50 for inhibition of LDLR endocytosis by wild-type PCSK9 (BODIPY-LDL uptake, HepG2 cells) [1] | EC50 for inhibition of LDLR endocytosis by functionally enhanced mutant PCSK9 (PCSK9-D374Y) (BODIPY-LDL uptake, HepG2 cells) [2] | EC50 for MAB1 relieving the inhibition of LDL endocytosis in HepG2 cells by PCSK9 [3] | EC50 of MAB1 for inhibition of LDLR endocytosis by wild-type PCSK9 (BODIPY-LDL uptake, HepG2 cells) [1]
1 | evolocumab (purchased from AMGEN) (antibody, V domains shown) VH: QVQLVQSGAEVKKPGASVKVSCKASGYTLTSYGISWVRQAPGQGLEWMGWVSFYNGNTNYAQKLQGRGTMTTDPSTSTAYMELRSLRSDDTAVYYCARGYGMDVWGQGTTVTVSS VL: QSALTQPASVSGSPGQSITISCTGTSSDVGGYNSVSWYQQHPGKAPKLMIYEVSNRPSGVSNRFSGSKSGNTASLTISGLQAEDEADYYCNSYTSTSMVFGGGTKLTVL | 30.8 µg/mL | 1.26 µg/mL |  | 
2 | MAB1 (antibody, V domains shown) VH: EVQLVESGGGLVQPGRSLRLSCAASGFTFSSYSMNWVRQAPGKGLEWVSGISSSSSYISYADSVQGRFTISRDNGKNSLYLQMNSLRAEDTALYFCAREYDFWSAYYDAFDVWGQGTMVTVSS VL: QSELTQPRSVSGSPGQSVTISCTGTSRNIGGGNDVHWYQQHPGKAPKLLISGVIERSSGVPDRFSGSKSGNTASLTISGLQAEDEADYYCQSFDGSLSGSVFGTGTDVTVL |  |  | 13 µg/mL | 32.9 µg/mL
